Experimental data: patent US20250283117, “RNA-GUIDED NUCLEASES AND ACTIVE FRAGMENTS AND VARIANTS THEREOF AND METHODS OF USE” (Life Edit Therapeutics, Inc., published 2025)

T1: APG07433.1 (Bacillus sp.)
T1 sequence: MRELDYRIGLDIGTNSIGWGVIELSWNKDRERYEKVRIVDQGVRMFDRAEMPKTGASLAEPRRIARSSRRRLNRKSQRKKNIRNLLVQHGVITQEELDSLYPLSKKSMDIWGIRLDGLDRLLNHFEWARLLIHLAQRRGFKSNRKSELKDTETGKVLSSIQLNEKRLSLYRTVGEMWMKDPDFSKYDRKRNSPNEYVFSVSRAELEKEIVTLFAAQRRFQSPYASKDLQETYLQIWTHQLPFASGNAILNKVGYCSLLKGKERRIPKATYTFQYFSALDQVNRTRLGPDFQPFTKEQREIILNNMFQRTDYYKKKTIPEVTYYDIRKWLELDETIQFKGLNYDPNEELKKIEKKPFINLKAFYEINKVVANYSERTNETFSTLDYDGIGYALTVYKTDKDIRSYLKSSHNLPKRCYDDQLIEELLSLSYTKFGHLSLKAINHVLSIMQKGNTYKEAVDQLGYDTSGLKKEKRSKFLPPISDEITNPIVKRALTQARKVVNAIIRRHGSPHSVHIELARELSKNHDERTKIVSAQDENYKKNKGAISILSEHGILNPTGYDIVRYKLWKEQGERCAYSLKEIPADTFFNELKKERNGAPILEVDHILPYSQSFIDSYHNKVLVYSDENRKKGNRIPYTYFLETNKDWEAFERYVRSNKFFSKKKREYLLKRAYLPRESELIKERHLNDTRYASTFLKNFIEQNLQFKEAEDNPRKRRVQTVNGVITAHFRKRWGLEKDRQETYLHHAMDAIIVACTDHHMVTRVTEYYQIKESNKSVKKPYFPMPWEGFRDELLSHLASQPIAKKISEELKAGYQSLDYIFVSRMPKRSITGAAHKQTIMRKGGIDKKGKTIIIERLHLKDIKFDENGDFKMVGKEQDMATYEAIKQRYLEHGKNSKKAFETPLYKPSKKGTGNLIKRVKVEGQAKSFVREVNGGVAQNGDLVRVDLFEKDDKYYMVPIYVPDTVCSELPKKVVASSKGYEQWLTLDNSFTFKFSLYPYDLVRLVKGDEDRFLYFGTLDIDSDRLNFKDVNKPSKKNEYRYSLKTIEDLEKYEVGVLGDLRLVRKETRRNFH

T2: APG07513.1 (Bacillus sp.)
T2 chain: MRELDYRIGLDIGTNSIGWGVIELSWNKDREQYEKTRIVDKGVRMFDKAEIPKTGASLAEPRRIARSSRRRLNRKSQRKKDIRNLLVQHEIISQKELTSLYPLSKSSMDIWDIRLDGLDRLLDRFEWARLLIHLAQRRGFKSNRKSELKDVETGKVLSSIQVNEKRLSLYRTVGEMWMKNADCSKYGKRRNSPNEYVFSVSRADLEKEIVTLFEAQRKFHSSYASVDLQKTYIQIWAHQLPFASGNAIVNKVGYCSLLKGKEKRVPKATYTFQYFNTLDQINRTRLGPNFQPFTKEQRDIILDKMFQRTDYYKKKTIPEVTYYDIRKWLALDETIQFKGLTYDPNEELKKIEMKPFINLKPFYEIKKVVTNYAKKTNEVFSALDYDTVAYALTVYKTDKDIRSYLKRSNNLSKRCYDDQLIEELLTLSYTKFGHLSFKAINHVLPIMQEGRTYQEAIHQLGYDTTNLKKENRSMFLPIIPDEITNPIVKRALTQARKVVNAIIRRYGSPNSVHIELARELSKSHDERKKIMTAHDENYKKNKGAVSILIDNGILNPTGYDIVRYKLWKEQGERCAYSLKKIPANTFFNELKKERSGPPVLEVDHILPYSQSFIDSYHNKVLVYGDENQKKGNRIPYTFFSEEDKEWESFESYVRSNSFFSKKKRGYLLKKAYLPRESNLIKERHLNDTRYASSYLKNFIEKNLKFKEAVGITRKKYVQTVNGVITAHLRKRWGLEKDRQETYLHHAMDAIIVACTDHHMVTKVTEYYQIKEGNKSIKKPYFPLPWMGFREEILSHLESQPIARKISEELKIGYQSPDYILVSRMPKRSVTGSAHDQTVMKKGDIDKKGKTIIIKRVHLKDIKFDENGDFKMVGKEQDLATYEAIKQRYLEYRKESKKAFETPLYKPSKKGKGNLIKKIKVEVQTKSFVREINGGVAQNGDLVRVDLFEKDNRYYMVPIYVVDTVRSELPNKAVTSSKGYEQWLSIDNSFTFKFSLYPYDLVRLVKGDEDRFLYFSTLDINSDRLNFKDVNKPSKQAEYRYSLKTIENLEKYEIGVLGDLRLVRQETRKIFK

T3: APG07433.1 (Bacillus sp.)
T3 chain: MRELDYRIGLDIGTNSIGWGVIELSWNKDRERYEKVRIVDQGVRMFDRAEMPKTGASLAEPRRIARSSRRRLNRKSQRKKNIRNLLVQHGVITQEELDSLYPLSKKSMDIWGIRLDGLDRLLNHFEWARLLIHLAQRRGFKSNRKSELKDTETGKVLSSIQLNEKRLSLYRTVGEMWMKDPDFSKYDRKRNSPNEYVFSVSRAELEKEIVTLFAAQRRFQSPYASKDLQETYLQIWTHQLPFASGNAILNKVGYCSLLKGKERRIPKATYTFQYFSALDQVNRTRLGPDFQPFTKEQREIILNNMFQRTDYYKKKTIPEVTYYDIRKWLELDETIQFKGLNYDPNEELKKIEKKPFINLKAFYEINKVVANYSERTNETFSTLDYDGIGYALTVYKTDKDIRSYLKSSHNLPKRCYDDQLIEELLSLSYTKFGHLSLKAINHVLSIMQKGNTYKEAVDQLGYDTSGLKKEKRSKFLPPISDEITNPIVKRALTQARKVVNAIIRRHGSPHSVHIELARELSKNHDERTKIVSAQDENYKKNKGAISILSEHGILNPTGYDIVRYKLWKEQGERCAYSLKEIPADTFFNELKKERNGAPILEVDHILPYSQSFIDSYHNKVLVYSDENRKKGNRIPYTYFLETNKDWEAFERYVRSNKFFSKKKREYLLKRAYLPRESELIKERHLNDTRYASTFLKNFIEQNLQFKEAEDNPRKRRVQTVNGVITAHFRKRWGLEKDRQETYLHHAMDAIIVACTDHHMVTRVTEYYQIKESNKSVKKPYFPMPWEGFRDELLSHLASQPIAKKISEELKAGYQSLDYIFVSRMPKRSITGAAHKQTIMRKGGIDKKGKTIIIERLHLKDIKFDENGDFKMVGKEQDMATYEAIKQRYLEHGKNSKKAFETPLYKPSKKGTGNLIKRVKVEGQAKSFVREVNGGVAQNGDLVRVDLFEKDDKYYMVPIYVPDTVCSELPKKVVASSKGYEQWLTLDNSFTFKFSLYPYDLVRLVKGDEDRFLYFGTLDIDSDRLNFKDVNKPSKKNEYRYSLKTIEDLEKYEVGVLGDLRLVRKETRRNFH


Columns and labels:
[1] = tested on: T1, APG07433.1 (Bacillus sp.); assay: cleavage_in_vitro; details: PAM NNNNCC; NTS cut 4, TS cut 3, 1 nt 5' overhang (Table 3)
[2] = target: T2, APG07513.1; assay: cell_activity; HEK293T; PAM NNNNCC; details: tags: E. coli pRSF-1b expression; human cells: N-term SV40 NLS and 3xFLAG, C-term nucleoplasmin NLS
Experimental: (§1) The constructs described above were introduced into mammalian cells. One day prior to transfection, 1×10⁵ HEK293T cells/well (Sigma) were plated in 24-well dishes in Dulbecco's modified Eagle medium (DMEM) plus 10% (vol/vol) fetal bovine serum (Gibco) and 1% Penicillin-Streptomycin (Gibco). The next day when the cells were at 50-60% confluency, 500 ng of a RGN expression plasmid plus 500 ng of a single gRNA expression plasmid were co-transfected using […] of Lipofectamine 3000 (Thermo Scientific) per well, following the manufacturer's instructions. After 48 hours of growth, total genomic DNA was harvested using a genomic DNA isolation kit (Machery-Nagel) according to the manufacturer's instructions.
(§2) Additionally, products from PCR #2 containing Illumina overhang sequences underwent library preparation following the Illumina 16S Metagenomic Sequencing Library protocol. Deep sequencing was performed on an Illumina Mi-Seq platform by a service provider (MOGene). Typically 200,000 of 250 bp paired-end reads (2×100,000 reads) are generated per amplicon. The reads were analyzed using CRISPResso (Pinello, et al. 2016 Nature Biotech, 34:695-697) to calculate the rates of editing. Output alignments were hand-curated to confirm insertion and deletion sites as well as identify microhomology sites at the recombination sites. All experiments were performed in human cells. The “target sequence” is the targeted sequence within the gene target. For each target sequence, the guide RNA comprised the complementary RNA target sequence and the appropriate sgRNA depending on the RGN used.

[3] = target: T3, APG07433.1; assay: cell_activity; HEK293T; PAM NNNNCC; details: tags: human cells: N-term SV40 NLS and 3xFLAG, C-term nucleoplasmin NLS
Experimental: as §1, §2

| Molecule | activity [2] | further results |
| --- | --- | --- |
| GAGCGGACAGCAGCUUCCUAUAUCUCGUACNNNNNNNNNNNNNNNNNNNNNNNNNGUCAUAGUUCCAUUAAAGCCAAAAGUGGCUUUGAUGUUUCUAUGAUAAGGGUUUCGACCCGUGGCGUCGGGGAUCGCCUGCCCAUUGAAAUGGGCUUCUCCCCAUUUAUU / GAGCGGACAGCAGCTTCCTATATCTCGTAC / GTACGAGATATAGGAAGCTGCTGTCCGCTC [Sequence 1 sgRNA for APG07433.1 ; Sequence 1 target] | – | activity [1]: 86 % cleaved |
| Guide 144 ; AurkB target of guide 144 (ssRNA ; dsDNA) RNA: CAUGGCAGUACAUUAGAGCAGUCAUAGUUCCAUUAAAGCCAUUGCUGAAAGACAGCAAUGGCUUUGAUGUUUCUAUGAUAAGGGCUUCGGCCCGUGGCGUUGGGGAUCGCCUGCCCAUUUUAAUGGGCUUCUCCCCAUCUAUUU DNA 1: CATGGCAGTACATTAGAGCA DNA 2: TGCTCTAATGTACTGCCATG | 2.4 % editing | – |
| Guide 173 ; HPRT1 target of guide 173 (ssRNA ; dsDNA) RNA: CUUCUAUAGCCUCCUUCCCCGUCAUAGUUCCAUUAAAGCCAAAAGUGGCUUUGAUGUUUCUAUGAUAAGGGUUUCGACCCGUGGCGUCGGGGAUCGCCUGCCCAUUGAAAUGGGCUUCUCCCCAUUUAUU DNA 1: CTTCTATAGCCTCCTTCCCC DNA 2: GGGGAAGGAGGCTATAGAAG | – | activity [3]: 26.6 % editing |
| Guide 136 ; AurkB target of guide 136 (ssRNA ; dsDNA) RNA: GGGCCAUUAAAACCUCUCCAGUCAUAGUUCCAUUAAAGCCAUUGCUGAAAGACAGCAAUGGCUUUGAUGUUUCUAUGAUAAGGGCUUCGGCCCGUGGCGUUGGGGAUCGCCUGCCCAUUUUAAUGGGCUUCUCCCCAUCUAUUU DNA 1: GGGCCATTAAAACCTCTCCA DNA 2: TGGAGAGGTTTTAATGGCCC | 0.9 % editing | – |
